A short description of this series: soluble on expression in E. coli; label from the status in PepcDB or PDB records.
“MPLIRNYDYYDLLNVAPSTSAHRPTVMVTSSRSYMEPQKSRIYYGKNEWRGGNTTIHDPTEFEETTMDKNANEIAGDDKRKKKRWRDLLFPNSRHSSRKDKENSNVSVATRSLSSVSFRSEKPSRRRESGSLSRHRYIPPPPLPMPPRRIMTSTSMGYSDDAMTSSSSHTTTDYDDIVPVPTPSYVIYPAASIAQASRRQQQGSAKNRIFRSPTYHHDAFVNSHEWTLSRSISEMKLGIVGTSQSGKTALVHRYLTGTYTPDESPEGGRFKKEVVIEGQSHLLLIRDEGQQHLDVQFCQWVDAVVFVFNVCSIQSYDSIQALAHEMSKYRNISDLPLILVGTKDHISEKRARVITEDEGRQLAAQMKRCSYFETSSTYGTNVERVFKEACCKIIQLRVRSQVGAAAAASSQARTPTPTHSESGGRKDYQDPSRYISSNSFVMPSNMRPSFPSNSTRRNTVHHRGEHPQQQQYQQQPPSSSRTASERSMSAMLGTPYGNRMPAGVSPSASQKSVHSIANGCYSRSSAALLDSDTPAVNSYLIDSMSSAGFPLSQSGANQVSASTSHLPTPSSTPNTQRKNRRISNIFRQKDHQEEKSKMIESLNLGIGRAIPIKQGNLYKKSSKSALNREWKKKYVCLYSDGRLTYHTNLKEYMDKTAHGKEMDLKLATIRITGRLHPLHSHRVASSVDPMNGGGGGGTPTLKSYEPRRSDVGANSGDGTSGGGSDDAIKENQRQHFSPPAMPQTVAGKKKRESRKIGTNSKHNDEEDECFEVINNCLMRWEFCAGSLEERDEWIQAIGGEIEKSLGKEVANAKTNNRAVANRPDIAALRSIPGNGRCADCGNPSSEWASINLGIIICIECSGIHRNLGSHISKVRGLELDQWPVEHLAVMQAIGNDKANEMWEFGLLNGERKPTPESSREEKERFIDRKYVQKAFLKPIASGEPVTSQLISAVLARDVMSLNVLLANGMSVEEINTTTKDGRTVLHLAASIGSVELAQLLIWHNADAQILDNNGRSCLFYARSNGFREVFDMLVTAGLSPDYGLPQEINDFSQMPEFFAMGSTSNRDYSTSGDEMYGSRRISMGPPPQVPARRYLPQQPELDETSVI”: the “soluble on expression in E. coli” value was “not soluble”.

As for “MAHHHHHHMSSTNPSGCAGLVAASVTTAASTGTTAAATLAARSPTPPSVPASNSNNSGPGAAVASAPARWRIPSFRPQEYLRGYLFGGVGMGVPELQQYVGKVEPMIREMLEHTQQVHSIHSLRSHFQKSDEPGDEEVVLRWPSHLLQFMEFYNTTRALEDPENQDAGVKEAYLGLMRRLYYTEPRRRDCIPTKYLDPRSLLLVRMWWSMDAAQRKQWPLSLMDHKALNVIQIKDRYLCSYVMTAMQAKQYLMRLVARPEMRAMIDQWRRERNDGSTGAGSPQRSKL”, the “soluble on expression in E. coli” value is “soluble”.

In the case of “PGSSGLPPEKPKNLSCIVNEGKKMRCEWDGGRETHLETNFTLKSEWATHKFADCKAKRDTPTSCTVDYSTVYFVNIEVWVEAENALGKVTSDHINFDPVYKVKPNPPHNLSVINSEELSSILKLTWTNPSIKSVIILKYNIQYRTKDASTWSQIPPEDTASTRSSFTVQDLKPFTEYVFRIRCMKEDGKGYWSDWSEEASGITYEDRPSKEPSFW”, the “soluble on expression in E. coli” value is “soluble”.

As for “IGQVNLSARGNFTFARNEIIEYDQVPQVYPWLEKRGTRLNSNKLYIAEGLYTYDDFIINGEGLNRTYELKPGVVSGLSSGVRPGDIKYKDLNGDGKIDSNDQKEDVGNPTVPEVVYGFGFNAEWKGFYAGIFFQGAGNTSTVLGTGADATFFPFQWGVEESAVRSVVADRWTEQNPSQNVMFPRMHSNNFQNNTVASTWWLRDASFLRLKNIELGYNFDKKLLKKLNIEALRFYVQGNNLCVWDHIKMWDPEQGNSNGGFPYPLNRTFTFGLDFTF”, the “soluble on expression in E. coli” value was “not soluble”.

As for “MSLSLYDSAHSLDGKSGWDTPVFSMKDSMDRNPMVTEAWEALCQSQVYFRGKPVGTIAAYDHASEEVLNYDQVFVRDFVPSALAFLMNGEPEIVKNFLLKTLHIQGQDKMIDKFKLGDGAMPASFKVLHNPIKKTDTIIADFGESAIGRVAPVDSGFWWIILLRAYTKSTGDHSLAERPECQKGMRLILSLCLSEGFDTFPTLLCADGCSMVDRRMGIYGYPIEIQALFFMALRSALSMLKHDSEGKEFMEKIVKRLHALSFHMRSYFWLDFQQLNDIYRYKTEEYSHTAVNKFNVIPDSIPDWIFDFMPLRGGYFVGNVSPARMDFRWFALGNCIAILSSLATPEQSMAIMDLIEARWEELVGEMPLKICYPAMESHEWGIVTGCDPKNTRWSYHNGGSWPVLLWLLTAASIKTGRPQIARRAIELAEARLLKDGWPEYYDGKSGRFIGKQARKSQTWSIAGYLVAKMMMDDPTHVGMISMEEEKHMKPPLRRSSSWT”, the “soluble on expression in E. coli” value is listed as “soluble”.

On to “MSTYDTAVLDDTLVSCLSQLIGAEHIDTLTLEGRFEITRIAAALSGRPGPAPRAILMSGLQGSGKTTLARALEAAGFRRLCPDEEMFRRYGHYGRDFPRGEFRVREAPVLKDIALELQELLTAGHEVVVDHGFWTREERAQWAMTVMEAGGKPVLIYLPVPHEVRWDRIRKRNEQSLVDANSIEFSEEDLLRHAGRFSPPTDDEPHIVYDGQPDSVLADIQLSRHFDALEHHHHHH”, for which the “soluble on expression in E. coli” value is given as “not soluble”.

As to “MLDAFAKVVAQADARGEFLTNAQFDALSNLVKEGNKRLDAVNRITSNASTIVANAARALFAEQPQLIQPGGNAYTNRRMAACLRDMEIILRYVTYAILAGDSSVLDDRCLNGLRETYQALGTPGSSVAVAIQKMKDAAIAIANDPNGITPGDCSALMSEIAGYFDRAAAAVA”, the “soluble on expression in E. coli” value is given as “soluble”.

As to “MSLTQGSVIFTQNRPGLDEKIFKIYKFKTMSDERDEKGELLSDELRLKAFGKIVRSLSLDELLQLFNVLKGDMSFVGPRPLLVEYLPLYNKEQKLRHKVRPGITGWAQVNGRNAISWQKKFELDVYYVKNISFLLDLKIMFLTALKVLKRSGVSKEGHVTTEKFNGKNEGHHHHHH”, the “soluble on expression in E. coli” value is listed as “not soluble”.

As for “MGSSSSFSSSSSKLLFRQLFENESSTFTYLLADVSHPDKPALLIDPVDKTVDRDLKLIDELGLKLIYAMNTHVHADHVTGTGLLKTKLPGVKSVISKASGSKADLFLEPGDKVSIGDIYLEVRATPGHTAGCVTYVTGEGADQPQPRMAFTGDAVLIRGCGRTDFQEGSSDQLYESVHSQIFTLPKDTLIYPAHDYKGFEVSTVGEEMQHNPRLTKDKETFKTIMSNLNLSYPKMIDVAVPANMVCGLQDVPSQAN”, the “soluble on expression in E. coli” value was “soluble”.

“MPKRIVYNISSDFQLKSLLGEGAYGVVCSATHKPTGEIVAIKKIEPFDKPLFALRTLREIKILKHFKHENIITIFNIQRPDSFENFNEVYIIQELMQTDLHRVISTQMLSDDHIQYFIYQTLRAVKVLHGSNVIHRDLKPSNLLINSNCDLKVCDFGLARIIDESAADNSEPTGQQSGMVEFVATRWYRAPEVMLTSAKYSRAMDVWSCGCILAELFLRRPIFPGRDYRHQLLLIFGIIGTPHSDNDLRCIESPRAREYIKSLPMYPAAPLEKMFPRVNPKGIDLLQRMLVFDPAKRITAKEALEHPYLQTYHDPNDEPEGEPIPPSFFEFDHYKEALTTKDLKKLIWNEIFS”: the “soluble on expression in E. coli” value is recorded as “soluble”.

Regarding “MGHHHHHHSHMAASTASQRPLKGILKDNTSTTSSMVASAEHPRGSVHEQLSKKSQKWDEMNILATYRPADKDYGLMKIDEPSTPYHSTMGDDEDACSDTETTEAMATDSLAKNLAAAEGLEPKYQVQEQESSGEEDSDLSPEEREKKRQFEMRRTLHYNEGLNIKLARQLISKDLHDDDKVEEMLETAHGESMNTEESNQGSTASDQQQNKSRSS”, the “soluble on expression in E. coli” value is “not soluble”.

Turning to “MDKSDMQRTVDSLRSQLNIERTPITVSAAELRRFTESQEDPLVNPIDKKVNPWAEKSKCSML”, the “soluble on expression in E. coli” value is “not soluble”.

“MTLGARLVAPMIILLLFIPIELVKAEVITLTPETFSDKIKEKDTAWFVKFCVPWCKHCKKLGNLWEDLGKAMEGDDEIEVGEVDCGTSRAVCTKVEIHSYPTFMLFYNGEEVSKYKGKRDVESLKAFVVEETEKAAEKAQLEDKEL”: the “soluble on expression in E. coli” value is “soluble”.

Take “MSLQVVIKFGGTSVSTRATWNNIAAITQKHLNTGVQPVIVCSALTQISNKLEKAIEAALLDEHHSLFNDIQSSHLNLAEQLEVNHQLIANDLHQLQQWLTGISLLKQAPAKTHAQILSLGELMMTRMGHAFLERHEIKVKWYDARELLTSTPTLGGETMNYLSARCESEYDPGLVEKFLSSGAQAIITQGFFAANPHGETVLLGRGGSDTSAALLAGKLQAASCEIWTDVPGIYTANPHQLPHARLLKQLNYDEAQEIASMGAKVLHPNCIPPVRKANIPMVVKYTHLPEHSGTLITKDIDESAPLIKSIQVKHSILLISIDTLNMWQQVGFLADVFAAFKKHGFSVDLLSSSEFNVTLSLDVNAKIHDRPAINALLDDLNQFGRAKLIEPCSAVSLVGHHIRTVLPHLGPALEVFEAKQVYLMSLASNDLNLTFVVDESHADKLCQRLHHLLIESNPQIFYYSKSWHEEFGKPNVRPTPWWEIERDRLLTTSAIHSPCYVYHSPTQAIRARQLSALESIDSLFYAVKANPFPSILKTLEKEGIGFECVSIQELELVLKLFPNIKKERILFTPNFAPKSEYEFALQTGCYVTIDSLYPLENWPELFKNREVIVRIDPGTGAGHHKHVSTGGNESKFGITQNDISKILSLTKSNHIKVIGLHAHSGSGILSTDLWQQTAVMLASLTDQFPEVRSINLGGGLGIVEKPGQHPIDFAALDAQLMAVKSQYPGLAIWLEPGRFFVAESGVILAKVTQCKEKGKVKFIGIETGMNSLIRPSLYGAYHEIVNLTRLHEEKAGFAHIVGPICESGDTLGYDRLLPVTKEGDVILIANTGAYGHCMSSHYNLRPPAQEIVLEEGHHHHHH”: the “soluble on expression in E. coli” value is recorded as “soluble”.

Consider “MGSDKIHHHHHHMSNHSSSIPELSDNGIRYYQTYNESLSLWPVRCKSFYISTRFGQTHVIASGPEDAPPLVLLHGALFSSTMWYPNIADWSSKYRTYAVDIIGDKNKSIPENVSGTRTDYANWLLDVFDNLGIEKSHMIGLSLGGLHTMNFLLRMPERVKSAAILSPAETFLPFHHDFYKYALGLTASNGVETFLNWMMNDQNVLHPIFVKQFKAGVMWQDGSRNPNPNADGFPYVFTDEELRSARVPILLLLGEHEVIYDPHSALHRASSFVPDIEAEVIKNAGHVLSMEQPTYVNERVMRFFNAETGISR”, for which the “soluble on expression in E. coli” value is on record as “not soluble”.

For “MLTDTAAEGLSDSEVGREEPATAEEEQREQQPEKFEEPVFSAELDEEQTAPESQTEAVSEDEKAKEPSDSPVYNHHENAAEGAESPFVQEEQMDIRQEEPLFTDHEYSSEALAQAETVAKESEEPSESIINNHYDTLGEAQETKIDVQPDSHTELEKTEHMEQGSKSSTATLENRQEIRADKPREASEEPKKRPGVQEKRTEQSASSQKGPSVPFNVMMLKRDTHKQQKAEERRGSYVFPNVALLDVPPAQVQDDTAWIEEQRQLLDLTLKNFNVRANVVHVTQGPSVTRFEVHPEPGVKVNKITNLSDDIKLSLSAKDIRIEAPIPGKNTIGIEVPNRTSKVVDLRQMIRSSAFRTSKSPLTAALGLDISGNPVVIDLKKMPHGLIAGATGSGKSVCINTILVSLLYKADPSEVKVLLIDPKMVELAPYNKIPHLVSPVITDAKAATAALKWVVEEMERRYELFAHSGVRDIDRFNQLTAEHQMGEKLPYLVVIIDELADLMMVAPNDVEESIARIAQKARACGIHLLVATQRPSVDVITGLIKANIPTRIAFSVSSQVDSRTIIDIAGAEKLLGKGDMLFLENGSGKPVRLQGNFVSDREIDRVVSHVRSQMPPTYLFEQEELVRQGSALKEEDELFYEACEFVVEQNSASTSSLQRRFRIGYNRAARLIDMMEAEGMISEAKGSKPREVLITASDLINE”, the “soluble on expression in E. coli” value is on record as “not soluble”.

For the sequence “MGSDKIHHHHHHMASPINESRIGYLYEAVRCGTVRAAADYLDVAPSAVSRQIALLEEELAIALVERNKRGVRPTEAGALLIEYFRQQRSHQGDLIAKLQEIRGLRRGTIAVVMGEGFASTMVSGPIKQYCEAYPEISITLDLCSTNEVMRRVSEDEAEIGLVFNPASDARIVSRVGSRQPMHAIVSPAFPLVGKVQSVTLRDMLPYPLALTHPEHGTRRLVDAAMLLEKVRLTPAITTNSATILKLFAKSNLGFTLLTPISIAAELAAGELVAIPVENRLLQSPEAHLVTRAGRQLSPAANRLLQRLTAQINQYAQYGSAS”, the “soluble on expression in E. coli” value is “not soluble”.

The values are drawn from the DeepSol protein solubility set.
